What was measured:
[1] = biological target: T1, SPARC (osteonectin), recombinant human (Biol-SPARC) (Homo sapiens, UniProt P09486 P09486:18-303); assay: SPR; SPARC immobilized; settings: tags: Biol; amine-coupled to CM5 chip or injected as analyte
T1 sequence: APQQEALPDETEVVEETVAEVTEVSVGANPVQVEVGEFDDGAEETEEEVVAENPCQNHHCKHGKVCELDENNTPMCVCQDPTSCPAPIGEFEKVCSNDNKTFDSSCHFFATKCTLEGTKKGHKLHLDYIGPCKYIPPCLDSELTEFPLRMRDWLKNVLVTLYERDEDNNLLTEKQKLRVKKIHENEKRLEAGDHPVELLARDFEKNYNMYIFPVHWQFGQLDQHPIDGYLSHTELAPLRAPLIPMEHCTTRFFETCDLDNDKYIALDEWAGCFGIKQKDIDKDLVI

[2] = biological target: T1, SPARC (osteonectin), recombinant human …; assay: SPR; SPARC immobilized; settings: tags: Biol; amine-coupled to CM5 chip or injected as analyte; remark: listed apart in the source
Protocol: (§1) Purified SPARC was immobilized onto the surface of a CM5 biosensor chip (GE/Biacore International AB) by the use of the amine coupling kit and the Surface Preparation tool as present in the BIACORE 3000® control software. The biosensor chip surface was activated by injecting (35 μL at a flow rate of 5 μL/min) a mixture of N-hydroxysuccinimide (NHS) and N-ethyl-N′-(dimethyl-aminopropyl)-carbodiimide (EDC) (1:1; v/v) into one of the four flow channels (Fcs). Then the SPARC, diluted (0.1 mg/mL) in coupling buffer (10 mM sodium acetate, pH 4.5), was injected and bound to the activated carboxymethylated dextran surface via its primary amine groups. After coupling, the remaining active groups were blocked with ethanolamine (1 M). Purified recombinant human VEGF165 (PeproTech, Rocky Hill, N.J.) was diluted into 100 μg/mL in sodium acetate, pH 5.5 and immobilized onto the biosensor chip surface as a control, and VEGF DNA aptamers were injected (FIG. 3). To validate recovery, the resulting bound VEGF aptamers were eluted, and 2 μL were recovered, out of which 0.5 μL was amplified by PCR.
(§2) A concentration series of selected oligonucleotide DNA were injected over both reference surface and SPARC surface. Reference surfaces were used to subtract bulk refractive index responses from the specific SPARC binding signal as well as to ensure that there is no nonspecific interaction with the sensor chip surface.

[3] = biological target: T1, SPARC (osteonectin), recombinant human …; assay: SPR; heterogeneous ligand model KD1; KD2 0.103 mM; units as printed; settings: tags: Biol; amine-coupled to CM5 chip or injected as analyte
Protocol: as §1
A concentration series of selected oligonucleotide DNA were injected over both reference surface and SPARC surface. […]

[4] = biological target: T1, SPARC (osteonectin), recombinant human …; assay: SPR; SPARC immobilized on CM5; HBS 10 mM HEPES 150 mM NaCl 0.005% P-20; approx 4 pM in p171; settings: tags: Biol; amine-coupled to CM5 chip or injected as analyte
Protocol: After coupling, the remaining active groups were blocked with ethanolamine (1 M). Purified recombinant human VEGF165 (PeproTech, Rocky Hill, N.J.) was diluted into 100 μg/mL in sodium acetate, pH 5.5 and immobilized onto the biosensor chip surface as a control, and VEGF DNA aptamers were injected (FIG. 3). To validate recovery, the resulting bound VEGF aptamers were eluted, and 2 μL were recovered, out of which 0.5 μL was amplified by PCR.
as §2
FIG. 21 depicts a sensorgram showing the binding and dissociation of Apt180 (SEQ ID NO: 1) to a Biol-SPARC immobilized CM5 sensorchip as described in Example 3. […] FIG. 22 is a sensorgram showing the binding and dissociation of Biol-SPARC and a modified Apt180 having the 3′ primer region of the aptamer removed. As described in Example 3, Biol-SPARC was immobilized to CM5 sensorchip and various concentrations (0.625 μM, 1.25 μM, 2.5 μM, 5 μM, and 10 μM) of the 3′ primer deleted Apt180, were injected over the Biol-SPARC sensor chip. The resulting KD calculated from this experiment was 1.45 nM. […]

VEGF165 [5] = biological target: T2, VEGF165 (Homo sapiens, UniProt P15692-4 P15692-4:27-191); assay: SPR; negligible binding; settings: tags: PeproTech; amine-coupled to CM5 chip; chain copies: 2
[6] = biological target: T3, SPARC, mouse (from PYS-2 cells) (Mus musculus, UniProt P07214 P07214:18-302); assay: SPR; aptamer immobilized on SA chip; settings: tags: Sigma; PYS-2 parietal yolk sac cells; label: 3'-biotin
T3 sequence: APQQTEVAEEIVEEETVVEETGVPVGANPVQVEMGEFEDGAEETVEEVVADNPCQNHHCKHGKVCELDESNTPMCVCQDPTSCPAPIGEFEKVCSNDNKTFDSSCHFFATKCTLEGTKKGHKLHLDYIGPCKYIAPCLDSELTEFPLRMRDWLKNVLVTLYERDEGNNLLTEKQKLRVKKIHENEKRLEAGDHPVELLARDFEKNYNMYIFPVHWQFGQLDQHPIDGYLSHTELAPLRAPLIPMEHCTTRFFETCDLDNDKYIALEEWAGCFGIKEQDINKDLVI

Bovine serum albumin = Bovine serum albumin (Bos taurus, UniProt P02769 P02769:25-607); assay: SPR; negligible binding; settings: label: 3'-biotin
VEGF165 [7] = biological target: T2, VEGF165; assay: SPR; VEGF immobilized; no specific interaction; settings: tags: PeproTech; amine-coupled to CM5 chip; chain copies: 2
[8] = biological target: T1, SPARC (osteonectin), recombinant human …; assay: SPR; aptamer immobilized on SA chip; 1:1 Langmuir; settings: tags: Biol; amine-coupled to CM5 chip or injected as analyte; label: 3'-biotin
Protocol: 20 μM each of biotinylated Apt180 (SEQ ID NO: 1), biotinylated Apt187 (SEQ ID NO: 2), or a control scrambled aptamer with biotin coupled to the 3′-end were immobilized onto commercially prepared SA sensor chips (GE/Biacore International AB), which have preimmobilized streptavidin, to allow biotin capture. Typically 1200 to 1300 RU of biotinylated aptamers were immobilized.
Using methods as described in Examples 2-3, above, biotinylated Apt180 and Apt187 were immobilized on CM5 sensorchips immobilized with streptavidin (SA sensorchips). Biol-SPARC was injected at concentrations ranging from 34.9 nM to 840 nM over the immobilized Apt180 and Apt187. For Apt180, the resulting curves were best fitted by heterogeneous ligand model indicating the possible presence of multiple binding sites.

T2 sequence (P15692 other isoform, or with tags, fused parts or gaps): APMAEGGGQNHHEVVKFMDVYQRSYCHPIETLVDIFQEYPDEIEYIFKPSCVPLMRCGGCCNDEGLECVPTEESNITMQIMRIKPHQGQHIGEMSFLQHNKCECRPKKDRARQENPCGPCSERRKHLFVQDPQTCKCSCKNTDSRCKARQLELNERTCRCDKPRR
Sequence of Bovine serum albumin (P02769 25-607, one chain of several): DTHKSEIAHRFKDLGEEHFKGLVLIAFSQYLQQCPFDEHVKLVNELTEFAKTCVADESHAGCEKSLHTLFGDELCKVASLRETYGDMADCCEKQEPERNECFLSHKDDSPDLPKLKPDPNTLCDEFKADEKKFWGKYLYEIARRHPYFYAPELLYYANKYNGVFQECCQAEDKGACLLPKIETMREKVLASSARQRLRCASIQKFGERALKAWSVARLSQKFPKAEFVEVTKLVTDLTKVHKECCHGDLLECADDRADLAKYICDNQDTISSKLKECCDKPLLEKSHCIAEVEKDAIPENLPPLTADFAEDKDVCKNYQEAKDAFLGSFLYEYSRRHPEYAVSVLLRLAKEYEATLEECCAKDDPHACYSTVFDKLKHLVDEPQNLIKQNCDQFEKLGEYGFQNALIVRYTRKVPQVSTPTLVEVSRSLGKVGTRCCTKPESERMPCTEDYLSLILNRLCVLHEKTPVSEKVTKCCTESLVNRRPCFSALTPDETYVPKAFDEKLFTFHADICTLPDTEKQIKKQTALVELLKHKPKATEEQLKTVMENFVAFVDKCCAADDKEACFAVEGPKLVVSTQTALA

B1: Apt100 (ssDNA)
DNA: GAATTCGATGGTAACCAAGGTCACTTTTTTATGTCGCTTAAATGTTGGTCATCTGATCTAGCCAAGC
Binder B1 has a Kd [1] of roughly 300 nM.

B2: Apt181 (ssDNA)
DNA: GAATTCGATGGTAACCAATTTCCGTATTGTTGGTTTGTGTTTGTGTCGTCATCTGATCTAGCCAAG
With B2 the Kd [2] was 298 nM.

B3: Apt211 (AptBia211) (ssDNA)
DNA: GAATTCGATGGTAACCAAGGAATATTTGGGGTTTTTTGCTTCTGGACGTCATCTGATCTAGCCAAG
B3 gave a Kd [3] of 132000 nM.

B4: Apt180 (ssDNA)
DNA: GAATTCGATGGTAACCAAGGCTGTTCGGTATTTTGATATTTTTATGCGTCATCTGATCTAGCCAAG
In the case of B4, the Kd [4] is reported as 0.0044 nM and the binding result (VEGF165 [5]) is reported as “no binding”.

B5: Apt180 3'-biotin (ssDNA)
DNA: GAATTCGATGGTAACCAAGGCTGTTCGGTATTTTGATATTTTTATGCGTCATCTGATCTAGCCAAG
B5 was tested, and the Kd [6] was 1200 nM and the binding result (Bovine serum albumin) was “no binding”.

B6: Apt231 (AptBia231) (ssDNA)
DNA: GAATTCGATGGTAACCAATGCGCTTATGTTTTTTTTATTTTTTATGTTTCATCTGATCTAGCCAAG
B6 showed a Kd [2] of 45.4 nM.

B7: Apt216 (AptBia216) (ssDNA)
DNA: GAATTCGATGGTAACCAATGATGTTATTTTTTTGTGCTTTTATTCTTTTCATCTGATCTAGCCAAG
Work on B7 yielded a Kd [2] of 447 nM.

B8: Apt191 (ssDNA)
DNA: GAATTCGATGGTAACCAAGGGGGTGTTTGTTTTTGTAGTCATTGTTGGTCATCTGATCTAGCCAAG
For B8, the binding result (VEGF165 [7]) was “no binding” and the Kd [2] was 84.2 nM.

B9: Apt184 (ssDNA)
DNA: GAATTCGATGGTAACCAACCCAATGTGTTTCGTTTGTTTTCATTTGTCATCTGATCTAGCCAAG
In the case of B9, the Kd [2] is reported as 277 nM.

B10: Apt187 (ssDNA)
DNA: GAATTCGATGGTAACCAAGGCGGGGTTTTCGTATGCTCATTCCAGTGGTCATCTGATCTAGCCAAG
B10 was tested, and the Kd [1] was 0.19 nM.

B11: Apt187 3'-biotin (ssDNA)
DNA: GAATTCGATGGTAACCAAGGCGGGGTTTTCGTATGCTCATTCCAGTGGTCATCTGATCTAGCCAAG
For B11, the Kd [8] was 30.2 nM.

B12: Apt208 (AptBia208) (ssDNA)
DNA: GAATTCGATGGTAACCAAGCAATTTGTATTTTTGTGTATTTATTTTGTTCATCTGATCTAGCCAAG
For B12, the Kd [2] was 100 nM.

B13: Apt207 (AptBia207) (ssDNA)
DNA: GAATTCGATGGTAACCAAGTGTATTGTTTATTCTTCTGTTTCTTATTGTCATCTGATCTAGCCAAG
B13 gave a Kd [2] of 139 nM.
